Reference: patent US20240245771A1 (XUZHOU MEDICAL UNIVERSITY, published 2024)

Target: T1, B7H3 target antigen (UniProt Q5ZPR3 29-466, limits assumed)
T1 construct: Control antigen is called 'other biotin-free antigen', which hints that this antigen may be biotinylated; also called B7H3 antigen; B7-H3 antigen
T1 sequence (looked up): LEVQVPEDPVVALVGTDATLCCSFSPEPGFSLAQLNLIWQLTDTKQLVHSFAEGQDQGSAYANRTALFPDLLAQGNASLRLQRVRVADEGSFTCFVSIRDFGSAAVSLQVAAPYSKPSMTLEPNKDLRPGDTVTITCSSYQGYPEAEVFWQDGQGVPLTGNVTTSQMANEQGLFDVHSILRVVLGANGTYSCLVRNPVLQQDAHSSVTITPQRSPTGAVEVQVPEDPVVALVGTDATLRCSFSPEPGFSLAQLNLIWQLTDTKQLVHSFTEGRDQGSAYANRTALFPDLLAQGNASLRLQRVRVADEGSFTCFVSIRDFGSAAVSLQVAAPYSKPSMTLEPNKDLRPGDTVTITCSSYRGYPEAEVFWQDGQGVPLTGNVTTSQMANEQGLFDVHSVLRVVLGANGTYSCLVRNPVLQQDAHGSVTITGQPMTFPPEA
Experiment: Biacore SPR, antibody captured on Protein A chip, antigen flowed, Langmuir fit
Description: The B7-H3 antigen was allowed to flow over the chip surface using a series of concentration gradients. The binding time was 120 s, and the dissociation time was 120 s. After the cycle dissociation was completed, the biochip was washed with glycine-hydrochloric acid (pH=1.5) buffer, the sample injection was performed at 30 μL/min, and regeneration was performed for 30 s. Reaction signals were detected in real time using a Biacore instrument, and thus binding and dissociation curves were obtained.
The data obtained from the experiment were fitted with the Langmuir model using GE software.

B1: purified B7H3-02 scFv protein (prokaryotic expression, pET-22b) (scFv)
scFv: EVQLFQSGGGLVQPGGSLRLSCAASGFTFSSYAMSWVRQAPGKGLEWVSAISGSGGSTYYADSVKGRFTISRDNSKNTLYLQMNSLRAEDTAVYYCARGVGRGFDYWGQGTTVTVSSSGGGSGGGGSGGGGSDIQLTQSPSSLSASVGDRVTITCRASQSISIYLNWYRQQPGKAPKLLIYAASSLQSGVPSRFSGSGSGTDFTLTISSLQPEDFATYFCQQTYSTPPWTFGQGTKVDIK
notes: The Biacore experiment speaks of 'purified B7H3-02 antibodies' captured on a Protein A chip; also called B7H3-02 scFv antibody; B7H3-02 antibody; not shown: His tag implied (detected with His antibodies, pET-22b vector)
  Kd: 27.8 nM
